± gives the uncertainty stated by the source.
B1: library; numbered along this chain (parent)
chain: MEVVDPQQLGMFTEGELMSVGMDTFIHRIDSTEVIYQPRRKRAKLIGKYLMGDLLGEGSYGKVKEVLDSETLCRRAVKILKKKKLRRIPNGEANVKKEIQLLRRLRHKNVIQLVDVLYNEEKQKMYMVMEYCVCGMQEMLDSVPEKRFPVCQAHGYFCQLIDGLEYLHSQGIVHKDIKPGNLLLTTGGTLKISDLGVAEALHPFAADDTCRTSQGSPAFQPPEIANGLDTFSGFKVDIWSAGVTLYNITTGLYPFEGDNIYKLFENIGKGSYAIPGDCGPPLSDLLKGMLEYEPAKRFSIRQIRQHSWFRKKHPPAEAPVPIPPSPDTKDRWRSMTVVPYLEDLHGADEDEDLFDIEDDIIYTQDFTVPGQVPEEEASHNGQRRGLPKAVCMNGTEAAQLSTKSRAEGRAPNPARKACSASSKIRRLSACKQQ

Variants of: B1
Assay: STK11 functional score (HeLa growth suppression), rescaled enrichment; synonymous median = 1, nonsense median = 0 (normalised score)
Conditions: with HeLa; variant type: missense
Procedure, shortened: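 Codon-randomised (POPCode) libraries of codon-optimised STK11 were integrated by Bxb1 at an AAVS1 landing pad in HeLa, in three regions each transfected three times. Integrants (BFP-negative, mCherry-positive) were FACS-sorted 4–5 days after electroporation and grown about two weeks; tiled gDNA amplicons were sequenced on NextSeq (~2 million reads per tile). The functional score is the wild-type-corrected post/pre-selection log ratio, rescaled to synonymous and nonsense medians, merged over codons and replicate transfections, with bootstrapped error.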

| Variant | STK11 functional score |
| --- | --- |
| G15D | 1.72 ± 0.12 |
| A205W | 1.7 ± 0.38 |
| L140Q | 1.54 ± 0.16 |
| L140P | -0.0157 ± 0.083 |
| E291D | 1.03 ± 0.35 |
| A206Q | 1.07 ± 0.092 |
| V390A | 1.51 ± 0.31 |
| V390C | 1.06 ± 0.48 |
| V390E | 1.44 ± 0.34 |
| E98W | 0.16 ± 0.15 |
| E98I | 0.496 ± 0.18 |
| P323S | 1.3 ± 0.5 |
| C210L | 0.435 ± 0.12 |
| R106M | 1.59 ± 0.17 |
| R106G | 0.687 ± 0.11 |
| H379G | 1.11 ± 0.57 |
| L386P | 0.743 ± 0.56 |
| L183A | 0.587 ± 0.29 |
| S169G | 1.29 ± 0.33 |
| S169A | 1.09 ± 0.49 |
| N109W | 0.336 ± 0.076 |
| N109T | 0.928 ± 0.11 |
| K48N | 0.966 ± 0.39 |
| T189V | 1.3 ± 0.28 |

| Variant | STK11 functional score |
| --- | --- |
| A153E | 0.243 ± 0.093 |
| A153V | 0.499 ± 0.1 |
| A153R | 0.204 ± 0.096 |
| V3A | 1.46 ± 0.16 |
| G385I | 1.45 ± 0.25 |
| G215D | 0.255 ± 0.12 |
| T212Y | 1.38 ± 0.12 |
| T24Y | 1.49 ± 0.37 |
| S216N | 0.349 ± 0.12 |
| S216V | 0.614 ± 0.25 |
| S216Y | -0.11 ± 0.12 |
| L67Y | 0.0744 ± 0.31 |
| V368Y | 1.54 ± 0.24 |
| V368C | 1.58 ± 0.18 |
| V368R | 0.87 ± 0.44 |
| S378L | 0.82 ± 0.19 |
| P314I | 1.5 ± 0.15 |
| K146S | 1.33 ± 0.12 |
| K146L | 1.13 ± 0.13 |
| N247Y | 1.32 ± 0.28 |
| N247F | 0.863 ± 0.091 |
| S193L | 0.696 ± 0.12 |
| L85I | 1.56 ± 0.2 |
| L85E | 1.7 ± 0.4 |

| Variant | STK11 functional score |
| --- | --- |
| D141V | 1.18 ± 0.36 |
| D141E | 0.883 ± 0.17 |
| H313M | 1.25 ± 0.59 |
| A398W | 0.886 ± 0.088 |
| A398F | 1.12 ± 0.42 |
| A398C | 1.35 ± 0.39 |
| A398Y | 1.23 ± 0.29 |
| K311R | 1.43 ± 0.24 |
| K311D | 1.32 ± 0.29 |
| A429K | 1.49 ± 0.27 |
| A429S | 1.29 ± 0.2 |
| A429E | 1.55 ± 0.19 |
| R301P | 1.07 ± 0.38 |
| L282T | 0.466 ± 0.16 |
| T363W | 1.19 ± 0.16 |
| T363S | 1.34 ± 0.17 |
| R384E | 1.53 ± 0.27 |
| R384P | 1.56 ± 0.24 |
| T402F | 1.18 ± 0.12 |
| L285Q | -0.0107 ± 0.26 |
| D258Y | 1.49 ± 0.2 |
| Y36C | 1.11 ± 0.25 |
| Y36I | 1.03 ± 0.17 |
| Y36H | 1.39 ± 0.48 |

| Variant | STK11 functional score |
| --- | --- |
| N412T | 1.09 ± 0.53 |
| N412H | 1.1 ± 0.46 |
| L252I | 1.54 ± 0.12 |
| L252Y | 0.274 ± 0.59 |
| F354C | 0.742 ± 0.34 |
| F354K | 1.57 ± 0.22 |
| V114Y | 1.59 ± 0.21 |
| V114S | 0.384 ± 0.1 |
| K416Q | 1.46 ± 0.38 |
| K416N | 0.923 ± 0.4 |
| M22C | 1.21 ± 0.38 |
| M22G | 1.07 ± 0.099 |
| T32H | 1.68 ± 0.17 |
| V128A | 0.438 ± 0.1 |
| A417S | 1.25 ± 0.36 |
| P319G | 1.53 ± 0.2 |
| P319F | 1.47 ± 0.26 |
| I303N | 1.54 ± 0.61 |
| R86P | 1.3 ± 0.17 |
| C132F | 0.255 ± 0.089 |
| A200L | 0.6 ± 0.26 |
| L101Q | 0.894 ± 1 |
| D194S | -0.236 ± 0.11 |
| D194E | -0.268 ± 0.36 |

| Variant | STK11 functional score |
| --- | --- |
| A273G | 0.649 ± 0.24 |
| F219Y | 1.29 ± 0.54 |
| I46W | 0.0413 ± 0.094 |
| I46S | 0.762 ± 0.1 |
| M136A | 0.691 ± 0.12 |
| L102G | 1.07 ± 0.08 |
| Y253W | 0.66 ± 0.1 |
| V150S | 0.347 ± 0.13 |
| T230W | 1.17 ± 0.48 |
| I361T | 1.58 ± 0.47 |
| H107P | 0.25 ± 0.083 |
| G91R | 1.03 ± 0.16 |
| C418E | 1.58 ± 0.14 |
| Y362H | 1.44 ± 0.13 |
| P373C | 1.32 ± 0.48 |
| G56I | 0.188 ± 0.091 |
| G56W | -0.159 ± 0.14 |
| P179Y | 0.059 ± 0.1 |
| Q37D | 1.4 ± 0.29 |
| F255M | 0.792 ± 0.1 |
| F255Y | 1.25 ± 0.79 |
| V4H | 1.65 ± 0.25 |
| S232I | 1.4 ± 0.18 |
| G370I | 1.6 ± 0.29 |

| Variant | STK11 functional score |
| --- | --- |
| G370V | 0.706 ± 0.17 |
| G370D | 1.24 ± 0.39 |
| G370P | 1.59 ± 0.27 |
| Q123R | 0.312 ± 0.081 |
| Q123C | 1.35 ± 0.34 |
| D68R | 1.07 ± 0.21 |
| A295N | 1.24 ± 0.13 |
| F148R | -0.0906 ± 0.086 |
| F148L | 0.829 ± 0.095 |
| L184R | 0.329 ± 0.17 |
| G279M | 0.984 ± 0.61 |
| Q364C | 1.28 ± 0.32 |
| D208M | 1.7 ± 0.38 |
| A410T | 0.749 ± 0.21 |
| A198P | 0.974 ± 0.23 |
| E65L | 0.5 ± 0.28 |
| K287W | 0.0714 ± 0.29 |
| K287H | 1.3 ± 0.15 |
| V66A | 1.4 ± 0.092 |
| V110S | 0.535 ± 0.12 |
| V110E | -0.206 ± 0.081 |
| L263D | 0.549 ± 0.14 |
| P339N | 0.366 ± 0.35 |
| M139Q | 1.11 ± 0.32 |

| Variant | STK11 functional score |
| --- | --- |
| P222G | 0.489 ± 0.095 |
| P222R | 0.93 ± 0.23 |
| P222N | 1.61 ± 0.13 |
| P222S | 1.15 ± 0.12 |
| T395A | 0.877 ± 0.44 |
| T395P | 1.32 ± 0.53 |
| A377E | -0.00596 ± 0.15 |
| A377W | 0.843 ± 0.75 |
| K262M | 1.17 ± 0.86 |
| K262D | 1.38 ± 0.2 |
| G233C | 1.43 ± 0.097 |
| A218T | 0.88 ± 0.47 |
| A218F | 1.26 ± 0.17 |
| A218D | 0.324 ± 0.12 |
| T336Y | 1.17 ± 0.15 |
| T336W | 1.64 ± 0.15 |
| Y156E | 1.15 ± 0.36 |
| G268F | 1.16 ± 0.24 |
| G268I | 1.65 ± 0.17 |
| G268C | 1.25 ± 0.42 |
| G268T | 1.52 ± 0.16 |
| D348S | 1.59 ± 0.16 |
| Y272V | 0.735 ± 0.11 |

Reference: the supplement of paper PMC12338614
